Experiment [1] deals with somatostatin receptors in GH4 C1 cells. The experiment is described as follows: radioligand filtration binding on crude GH4 C1 membranes, vehicle-treated cells.
Experiment [2] shares this target. Kind of experiment: radioligand filtration binding on crude GH4 C1 membranes, sense oligo treated cells.
For experiment [3] the target is unchanged. The experiment is described as follows: radioligand filtration binding on crude GH4 C1 membranes, cells treated with antisense oligo for 24 hours.
The target is the same in experiment [4]. The experiment is described as follows: radioligand filtration binding on crude GH4 C1 membranes, antisense-treated against vehicle and sense-treated cells.

Consider one substance from patent US6077666.

The substance “[125I]tyr-somatostatin, S-14 (from UniProt P61278) (peptide)” displayed a [125I]tyr-somatostatin binding (fmol/mg), vehicle-treated cells in experiment [1] of 408 fmol/mg. Further, the [125I]tyr-somatostatin binding (fmol/mg), sense oligo treated cells in experiment [2] amounted to 350 fmol/mg. The substance further yielded a [125I]tyr-somatostatin binding, antisense oligo treated cells in experiment [3] of 166 fmol/mg. This substance also returned a decline in [125I]tyr-somatostatin binding after antisense treatment in experiment [4] of 60%.
